Measured values reported in US20210246166A1 (Bayer, published 2021).
Numbered stars: 1 amine (or outer) side, 2 acyl side, 3 side chain; on linkers, the order of the positions; unused ones are H or OH. Bridge positions count the residues as written; N and C are the ends. Square brackets hold non-standard residues; d marks the D form. Primed or numbered codes have the meaning given here. Ends that are not written are not given here. TTDS = 1,13-diamino-4,7,10-trioxatridecan-succinamic acid, O=C(CCC(=O)[*:2])NCCCOCCOCCOCCCN[*:1]; Oic = O=C(O)[C@@H]1C[C@@H]2CCCC[C@@H]2N1; Pro‑D2″ = L-Proline (3,4-2H), deuterated; PEG6 = NCCOCCOCCOCCOCCOCCOCCC(=O)O; tBuAla = CC(C)(C)C[C@H](N)C(=O)O; PEG5 = NCCOCCOCCOCCOCCOCCC(=O)O; Pen = CC(C)(S)[C@H](N)C(=O)O; NMeA = CN[C@@H](C)C(=O)O; Orn = NCCC[C@H](N)C(=O)O; Sar = CNCC(=O)O

Tests used:
[1] = target: T1, recombinant human MASP1 active protease (amino acids 297-699, C-terminal His Tag) (human, UniProt P48740 297-699); experiment: cell-based or functional assay
T1 sequence: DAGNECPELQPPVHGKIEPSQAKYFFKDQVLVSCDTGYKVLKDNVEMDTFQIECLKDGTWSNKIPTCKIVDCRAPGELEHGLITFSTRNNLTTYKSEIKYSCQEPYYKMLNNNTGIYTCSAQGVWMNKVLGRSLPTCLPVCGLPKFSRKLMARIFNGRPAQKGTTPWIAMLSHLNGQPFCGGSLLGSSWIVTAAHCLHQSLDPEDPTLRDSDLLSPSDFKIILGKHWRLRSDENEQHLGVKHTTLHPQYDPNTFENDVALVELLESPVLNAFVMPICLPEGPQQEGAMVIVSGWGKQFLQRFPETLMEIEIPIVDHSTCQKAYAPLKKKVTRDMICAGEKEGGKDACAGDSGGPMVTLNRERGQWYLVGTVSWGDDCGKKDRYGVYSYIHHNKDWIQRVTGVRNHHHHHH

[2] = target: recombinant human MASP2 active protease (amino acids 297-686, C-terminal His Tag) (human, UniProt O00187 297-686); experiment: cell-based or functional assay
Sequence of recombinant human MASP2 active protease (amino acids 297-686, C-terminal His Tag) (O00187 other isoform, or with tags, fused parts or gaps limits assumed): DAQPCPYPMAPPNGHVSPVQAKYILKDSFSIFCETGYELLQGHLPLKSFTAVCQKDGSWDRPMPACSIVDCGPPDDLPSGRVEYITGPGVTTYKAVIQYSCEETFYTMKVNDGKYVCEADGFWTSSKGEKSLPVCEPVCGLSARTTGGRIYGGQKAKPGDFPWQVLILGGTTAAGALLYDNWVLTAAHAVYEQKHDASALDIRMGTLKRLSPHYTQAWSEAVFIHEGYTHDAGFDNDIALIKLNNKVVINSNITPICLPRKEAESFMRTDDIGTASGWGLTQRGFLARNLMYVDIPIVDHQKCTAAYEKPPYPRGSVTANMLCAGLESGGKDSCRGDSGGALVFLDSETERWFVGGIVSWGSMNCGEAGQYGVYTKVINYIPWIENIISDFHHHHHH

Row | Binder | human MASP1 IC50 [1] | human MASP2 IC50 [2]
1 | [Sar]ICSRSLP[Oic]I[Pen]IP[PEG6]-NH2 (disulfide 3-11; N-terminus assumed; SMILES CC[C@H](C)[C@H](NC(=O)CNC)C(=O)N[C@H]1CSSC(C)(C)[C@@H](C(=O)N[C@H](C(=O)N2CCC[C@H]2C(=O)NCCOCCOCCOCCOCCOCCOCCC(N)=O)[C@@H](C)CC)NC(=O)[C@H]([C@@H](C)CC)NC(=O)[C@@H]2C[C@@H]3CCCC[C@@H]3N2C(=O)[C@@H]2CCCN2C(=O)[C@H](CC(C)C)NC(=O)[C@H](CO)NC(=O)[C@H](CCCNC(=N)N)NC(=O)[C@H](CO)NC1=O) [((N-Me)G)-IC+SRSLP-(Oic)-I-(Pen)+IP-(PEG5(22 atoms))-NH2] | 3.5 nM | 90 nM
2 | [Orn]ICSRS[tBuAla]PPI[Pen]IP-OH (disulfide 3-11; N-terminus assumed; SMILES CC[C@H](C)[C@H](NC(=O)[C@@H](N)CCCN)C(=O)N[C@H]1CSSC(C)(C)[C@@H](C(=O)N[C@H](C(=O)N2CCC[C@H]2C(=O)O)[C@@H](C)CC)NC(=O)[C@H]([C@@H](C)CC)NC(=O)[C@@H]2CCCN2C(=O)[C@@H]2CCCN2C(=O)[C@H](CC(C)(C)C)NC(=O)[C@H](CO)NC(=O)[C@H](CCCNC(=N)N)NC(=O)[C@H](CO)NC1=O) [(Orn)-IC+SRS-((tBu)A)-PPI-(Pen)+IP-OH] | 3.6 nM | 130 nM
3 | [2‑(Diethylamino)acetyl]ICSRS[tBuAla]PPI[Pen]IPD-NH2 (disulfide 3-11) [(2-(Diethylamino)acetyl)-IC+SRS-((tBu)A)-PPI-(Pen)+IPD-NH2] | 3.5 nM | 98 nM
4 | [Sar]ICSRSLP[Oic]I[Pen]IP[TTDS]-NH2 (disulfide 3-11; N-terminus assumed; SMILES CC[C@H](C)[C@H](NC(=O)CNC)C(=O)N[C@H]1CSSC(C)(C)[C@@H](C(=O)N[C@H](C(=O)N2CCC[C@H]2C(=O)NCCCOCCOCCOCCCNC(=O)CCC(N)=O)[C@@H](C)CC)NC(=O)[C@H]([C@@H](C)CC)NC(=O)[C@@H]2C[C@@H]3CCCC[C@@H]3N2C(=O)[C@@H]2CCCN2C(=O)[C@H](CC(C)C)NC(=O)[C@H](CO)NC(=O)[C@H](CCCNC(=N)N)NC(=O)[C@H](CO)NC1=O) [((N-Me)G)-IC+SRSLP-(Oic)-I-(Pen)+IP-(TTDS)-NH2] | 3.4 nM | 87 nM
5 | [Sar]ICSRS[tBuAla]PPI[Pen]IP[PEG5]-NH2 (disulfide 3-11; N-terminus assumed; SMILES CC[C@H](C)[C@H](NC(=O)CNC)C(=O)N[C@H]1CSSC(C)(C)[C@@H](C(=O)N[C@H](C(=O)N2CCC[C@H]2C(=O)NCCOCCOCCOCCOCCOCCC(N)=O)[C@@H](C)CC)NC(=O)[C@H]([C@@H](C)CC)NC(=O)[C@@H]2CCCN2C(=O)[C@@H]2CCCN2C(=O)[C@H](CC(C)(C)C)NC(=O)[C@H](CO)NC(=O)[C@H](CCCNC(=N)N)NC(=O)[C@H](CO)NC1=O) [((N-Me)G)-IC+SRS-((tBu)A)-PPI-(Pen)+IP-(PEG4(19 atoms))-NH2] | 3.6 nM | 60 nM
6 | [NMeA]ICSRSLP[Oic]I[Pen]I-OH (disulfide 3-11; N-terminus assumed; SMILES CC[C@H](C)[C@H](NC(=O)[C@H]1NC(=O)[C@H]([C@@H](C)CC)NC(=O)[C@@H]2C[C@@H]3CCCC[C@@H]3N2C(=O)[C@@H]2CCCN2C(=O)[C@H](CC(C)C)NC(=O)[C@H](CO)NC(=O)[C@H](CCCNC(=N)N)NC(=O)[C@H](CO)NC(=O)[C@@H](NC(=O)[C@@H](NC(=O)[C@H](C)NC)[C@@H](C)CC)CSSC1(C)C)C(=O)O) [((N-Me)A)-IC+SRSLP-(Oic)-I-(Pen)+I-OH] | 3.4 nM | 410 nM
7 | AICSRS[tBuAla]PPI[Pen]IPD-OH (disulfide 3-11; N-terminus assumed; SMILES CC[C@H](C)[C@H](NC(=O)[C@H](C)N)C(=O)N[C@H]1CSSC(C)(C)[C@@H](C(=O)N[C@H](C(=O)N2CCC[C@H]2C(=O)N[C@@H](CC(=O)O)C(=O)O)[C@@H](C)CC)NC(=O)[C@H]([C@@H](C)CC)NC(=O)[C@@H]2CCCN2C(=O)[C@@H]2CCCN2C(=O)[C@H](CC(C)(C)C)NC(=O)[C@H](CO)NC(=O)[C@H](CCCNC(=N)N)NC(=O)[C@H](CO)NC1=O) [AIC+SRS-((tBu)A)-PPI-(Pen)+IPD-OH] | 1.2 nM | 37 nM
8 | TICSRS[tBuAla]PPI[Pen]IPD-NH2 (disulfide 3-11; N-terminus assumed; SMILES CC[C@H](C)[C@H](NC(=O)[C@@H](N)[C@@H](C)O)C(=O)N[C@H]1CSSC(C)(C)[C@@H](C(=O)N[C@H](C(=O)N2CCC[C@H]2C(=O)N[C@@H](CC(=O)O)C(N)=O)[C@@H](C)CC)NC(=O)[C@H]([C@@H](C)CC)NC(=O)[C@@H]2CCCN2C(=O)[C@@H]2CCCN2C(=O)[C@H](CC(C)(C)C)NC(=O)[C@H](CO)NC(=O)[C@H](CCCNC(=N)N)NC(=O)[C@H](CO)NC1=O) [TIC+SRS-((tBu)A)-PPI-(Pen)+IPD-NH2] | 3.6 nM | 74.5 nM
9 | [NMeA]ICSRSLP[Oic]I[Pen]IPQ-NH2 (disulfide 3-11; N-terminus assumed; SMILES CC[C@H](C)[C@H](NC(=O)[C@H](C)NC)C(=O)N[C@H]1CSSC(C)(C)[C@@H](C(=O)N[C@H](C(=O)N2CCC[C@H]2C(=O)N[C@@H](CCC(N)=O)C(N)=O)[C@@H](C)CC)NC(=O)[C@H]([C@@H](C)CC)NC(=O)[C@@H]2C[C@@H]3CCCC[C@@H]3N2C(=O)[C@@H]2CCCN2C(=O)[C@H](CC(C)C)NC(=O)[C@H](CO)NC(=O)[C@H](CCCNC(=N)N)NC(=O)[C@H](CO)NC1=O) [((N-Me)A)-IC+SRSLP-(Oic)-I-(Pen)+IPQ-NH2] | 3.5 nM | 190 nM
10 | AICSRSLP[Oic]I[Pen]IPE-OH (disulfide 3-11; N-terminus assumed; SMILES CC[C@H](C)[C@H](NC(=O)[C@H](C)N)C(=O)N[C@H]1CSSC(C)(C)[C@@H](C(=O)N[C@H](C(=O)N2CCC[C@H]2C(=O)N[C@@H](CCC(=O)O)C(=O)O)[C@@H](C)CC)NC(=O)[C@H]([C@@H](C)CC)NC(=O)[C@@H]2C[C@@H]3CCCC[C@@H]3N2C(=O)[C@@H]2CCCN2C(=O)[C@H](CC(C)C)NC(=O)[C@H](CO)NC(=O)[C@H](CCCNC(=N)N)NC(=O)[C@H](CO)NC1=O) [AIC+SRSLP-(Oic)-I-(Pen)+IPE-OH] | 3.5 nM | 140 nM
11 | [NMeA]ICSRSLP[Oic]I[Pen]IP-NH2 (disulfide 3-11; N-terminus assumed; SMILES CC[C@H](C)[C@H](NC(=O)[C@H](C)NC)C(=O)N[C@H]1CSSC(C)(C)[C@@H](C(=O)N[C@H](C(=O)N2CCC[C@H]2C(N)=O)[C@@H](C)CC)NC(=O)[C@H]([C@@H](C)CC)NC(=O)[C@@H]2C[C@@H]3CCCC[C@@H]3N2C(=O)[C@@H]2CCCN2C(=O)[C@H](CC(C)C)NC(=O)[C@H](CO)NC(=O)[C@H](CCCNC(=N)N)NC(=O)[C@H](CO)NC1=O) [((N-Me)A)-IC+SRSLP-(Oic)-I-(Pen)+IP-NH2] | 3.4 nM | 99 nM
12 | AICSRSL[Pro‑D2″][Oic]I[Pen]IPD-OH (disulfide 3-11) [AIC+SRSL-(Pro-D2)-(Oic)-I-(Pen)+IPD-OH] | 2.13 nM | 126 nM
